The series in a line: soluble on expression in E. coli; label from the status in PepcDB or PDB records.
As to “MSLNSLPKNIAIYTRVSTEKQDSNNSKANQLESIKQYINNQGWSDVPYEIYSDTQSASITSNSLNMYNDSDTMNPSIFLRDGLRRLIYDANYKKFDKLIVYSHDRLSRDIYEGLLIKHTLKKLNIDILYSKAGEQINSENQSINNFFENMLSNIAALESSIIGGRVLIGNRHNILNNIWAGGPAPYGYKLIALPSNRKKSKLSIYAPEARVVKKIFELYTTGYTPKDIVQFIKSEYSYNKDRLWTINSIKSILNNPVYTGTMVWNKKGGKRNPRKHPIDEYVYSKFDENIRIIDEKLWKKSLNIRKLQDENPKFLSEGHHHHHH”, the “soluble on expression in E. coli” value is given as “soluble”.
“MGSDKIHHHHHHMSIVGNVENLINGVGELWNKYVKHEFILKMRDGSLPLDIFRYYLIQDGKYVEDMLRALLIASSKGPIDKVTKILNLVFSSRDKGLETHGKLYSKLDISRDVIVKTGYNLINYAYTRHLYYYANLDWNKFLVAWTPCMFGYSIVGDYVIDSPNEVYKTWASFYASTEYKKRIEAILYALDEVSITEDLLNIFINSVRFEIGFWDASLRKDPTVY”: the “soluble on expression in E. coli” value was “not soluble”.
On to “SNANRDSLFNDPNAPVLGNPEGDVTVVEFFDYNCPYCRRAMAEVQGLVDADPNVRLVYREWPILGEGSDFAARAALAARQQGKYEAFHWALMGMSGKANETGVLRIAREVGLDTEQLQRDMEAPEVTAHIAQSMALAQKLGFNGTPSFVVEDALVPGFVEQSQLQDAVDRARKAA”, for which the “soluble on expression in E. coli” value was “soluble”.
“MRRKSVLYLEVADQIKEDILSGKYPVGTFLPTETELEELFNVSKITIRRAIEMLATEEFVEKKSGRGTTVLSNRPYNKLSKAGTFTEFLNESGQKVTKKVLQVENLTLSKEMPAYQFLGEEVVHLSRLYLIDEQPYIYFNYYLPAAMKDVSLTEYKEESLYRLMDRHAIEIYKFEDRFEVATLTEAEQKMLQTTETTGLKRIRRSLSPTGRCVEYSEAIYNTKIHPYVIEYEA”: the “soluble on expression in E. coli” value was “not soluble”.
Next, “NYNIYDHPKAAEDRKNTVLYLMHYHKRITDKQWEDAKKIDLKANLVNRTPEERQNIDTNQDSEYNSYVNFVKSELMNNKAFKDENLGNVLQSG”: “not soluble”; “MSPLTTFLTDAQQQTLHQLIVSARDSGANEEMVKESMDEYLAQILSPDRLQELKTAHDEFEAQRRGKRAAISASDKPEPKKVFDIIDQFTSDYQKFYEESSAVRNRNNIN”: “soluble”; “MSPDKQAAALPRRERNRQAAAASPENSRGKGRRGQRGKNRGCVLTAIHLNVTDLGLGYETKEELIFRYCSGSCEAAETMYDKILKNLSRSRRLTSDKVGQACCRPVAFDDDLSFLDDSLVYHILRKHSAKRCGCI”: “soluble”.
Next, “MSLNSLDTSASTINGASIIQVIFEIFEISLQRKDYTSIVQCCEFMTMLTPNYLHLVSSYLNKSDLLDKYGKTGLSNMILGSVELSTGDYTFTIQLLKLTKVFIRESLSLKNIHISKRSKIDIINKLILHAIHIFESYYNWKYNNFLQKFEIAFHLTLIFYDVLHDVFTINPHQKDQLIISSSANKLLQLFLTPMDSIDLAPNTLTNILISPLNTTTKILGDKILGNLYSKVMNNSFKLCTLLISIRGSNRDLKPSNLEKLLFINSSKLVDVYTLPSYVHFKVQIIELLSYLVEAPWNDDYPFLLSFLGEAKSMAFLKEVLSDLSSPVQDWNLLRSLYIFFTTLLESKQDGLSILFLTGQFASNKKINDESSIDKKSSILTVLQKNSLLLDSTPEEVSCKLLETITYVLNTWTNSKIFIKDPKFVNSLLAKLKDSKKLFQKKENLTRDETVSLIKKYKLISRIVEIFALCIYNSTDSNSEILNFLNQEDLFELVHHFFQIDGFNKTFHDELNLKFKEKWPSLELQSFQKIPLSRINENENFGYDIPLLDIVLKADRSWNEPSKSQTNFKEEITDASLNLQYVNYEISTAKAWGALITTFVKRSTVPLNDGFVDLVEHFLKLNIDFGSDKQMFTQIYLERIELSFYILYSFKLSGKLLKEEKIIELMNKIFTIFKSGEIDFIKNIGKSLKNNFYRPLLRSVLVLLELVSSGDRFIELISDQLLEFFELVFSKGVYLILSEILCQINKCSTRGLSTDHTTQIVNLEDNTQDLLLLLSLFKKITNLNPSKNFNVILASSLNEVGTLKVILNLYSSAHLIRINDEPILGQITLTFISELCSIEPIAAKLINSGLYSVLLESPLSVAIQQGDIKPEFSPRLHNIWSNGLLSIVLLLLSQFGIKVLPETCLFVSYFGKQIKSTIYNWGDNKLAVSSSLIKETNQLVLLQKMLNLLNYQELFIQPKNSDDQQEAVELVIGEGHHHHHH”: “not soluble”.
For “WNRRTEQLTDGLGAQIDPDSMTPASPADIDTLTAWRQGKIIFKDQPLASVVKEMNRYLPQPITITDHRLDQVRIAGVFNTGDSAAFLQALHKSIPVQVILHADGSTELSLPR” the value was “not soluble”; for “MGFWCRMSENQEQEEVITVRVQDPRVQNEGSWNSYVDYKIFLHTNSKAFTAKTSCVRRRYREFVWLRKQLQRNAGLVPVPELPGKSTFFGTSDEFIEKRRQGLQHFLEKVLQSVVLLSDSQLHLFLQSQLSVPEIEACVQGRSTMTVSDAILRYAMSNCGWAQEERQSSSHLAKGDQPKSCCFLPRSGRRSSPSPPPSEEKDHLEVWAPVVDSEVPSLESPTLPPLSSPLCCDFGRPKEGTSTLQSVRRAVGGDHAVPLDPGQLETVLEK”, “soluble”; for “MYMSSLQSTRERVLGTPRRRYKVLVAKMGLDGHDRGAKVVARALRDAGFEVVYTGLRQTPEQVAMAAVQEDVDVIGVSILNGAHLHLMKRLMAKLRELGADDIPVVLGGTIPIPDLEPLRSLGIREIFLPGTSLGEIIEKVRKLAEEKRMREEAEASEQVGQA”, “soluble”.
As for “GAMASLVVPNLMGNKDKADRQKVMSDLVALESTLDMYRLDNNRYPTTEQGLRALVSKPTVQPEPRNYRQDGYIRRLPQDPWGGDYQLLNPGQYSDIDIFSPGPDGVPNTEDDIGNWTLGNAQP”, the “soluble on expression in E. coli” value was “soluble”.
For “MDDFATSSRVFEDDNDAFDFNPLEDFAFDDIDDDDDIVSGILDDGPYSIPNADNKPKFKSVSFDNAETPEERIETLFNQMPTQDDLLLGILDASQTPIFTDDLEQKVEELKQHHHSVYSPMSYCRLLERAGAIEQTNNEGLPLKEVEVEPDKVVVEGVEYWKVAAAPDVYWTATPAGLAHFQAYQPMELLRQMVQNEPQYEEIFRMVLSATAADGGESVKNIDDLVSDDPILQSPRRYAMYFIDKLERAGGIQWRGAWVAIQAGKDFLAELNA” the value was “not soluble”; for “MIGGGPGGLYFAYLWKKRHPEDQVDLFEQNPADATWGFGVVFSDQALEFLRADDPETVDAIAPHMESWENITLNLQGGSVAIDGVGFSSIGRLELLQFLQQRALDVGVTPRFDTQIHGIDQLNGHDLIVAADGLNSLVRRAYEGDFGTSLSYSSNKFVWYGTSKRFDTLSQTFVKTDRGAFNAHHYRYSPTMSTFLVECDHATWQAYGFAYKDVEQSKGVCEEVFADTLGGHCLVSNKSVWRNFPWVWNEHWSFKNMVLIGDALHSAHFSIGSGTRLAIEDAIALVKALESDAHLNTALLRYQAARKPVVQKLVDAARTSASWYENFAQHMQLDLMDFAYSYITRSGRIDDSRLRAMSPAFMARYEAAKNGGDAASEATALEHHHHHH”, “soluble”; for “MVEIDFNKENEEDFSDPPGFVDDVTDDVLVPDVLHKKPTIDEFEDNCVFIAGIPVVGADRLGKLQSVLKKVLERLDPAVKLYIPPSPEGGCLGVLLTEWADQRSAQFAVKSLNGYAFDKNHTFTARSFKDMKQLEAPSDHWTTPEKQAYNDVGDLWWWLQNERCRDQFAISHDKLGVPTVGVFTNMKGNDPELAGDADKAERANWTETVFTWSPHGSYLSTIHKQGIILWGGKDYARAHRFAHTNVQYIDFSPWETYLVTYAAPEESNSWGDCEKDSLRIWDVRTGELKKAFSTFELTGRTQLPTWPFFRWSFDEKYFACLKAPEKDKLEREQKINGISIFESEKFELYEGRPVNIENIKQFEWSPTSTVLAYYSECTDAVPAEFGLLQVPSMQRLRSARVHNVADAQMFWQKSGKRLAFYTMRFKKKEYRETGEVKYVGGCQYHVDIFEIDKKDVSLMNLPLSEPFIHFDWDPEGDKFCVLVGNTAKATPQVYKIEANSHAPKLVSKLDAGVHFNEVQFAPKGGWLAVLAKVSAGGNVYFIDTSLSEAKRTNVIEHPLFNKGYWDPTGRYFVTCSTLGGRAGADLGYRIFTFQGRELCRKNLDRLAQFKWRPRPPVKLSEQKQREIKKNLKKTAAKFIKQDDDEKCRASQEVVEKRRKIMAAFDIIRSRNREQLDATRDERISLRNGVDTEAQLDEDEFVDEEITIALSTSKTQAPLTEEEMRD”, “not soluble”.
“MKIPIPSIGHVALLASAILFASSANAASDEDGIIIYNAQHESFAKSWAEGFTKDTGIKVTLRNGKDSELGNQLIQEGSSSPADVFLTENSPAMVLVDNAKLFAPLDAATQAQVAKEYRPEDGRWTGIAARSTVFVYNPAKISEAELPKSLMDLAKPEWKGRWAASPSGADFQAIVSAMLALKGEQATLEWLKAMKTNATAYKGNSTVMKAVNAGQIDGGVIYHYYPFVDQAKTGENSGNIKLHYFKNKDPGAFVSISGAGVLASSKHPQQAQKFVQWVTGKAGQDFLRESNSAFEYAVGVNAASNPKLVPLKDLDPPKVEVSKLNSKKVVELMTEAGLL”: the “soluble on expression in E. coli” value was “not soluble”.
In the case of “MSLGFVPVRGLHHFAYRCRDAEETRQFYEGILGLPLVHVVRAEEVPSTGEYCPYMHLFFEMKDGSCVAFFDLDDDTVPLPSSNTPVWAQHLALRVDSVAAVEEAKRKLEQAGVKVLGPVDHDGFVCSIYFFDPNGVRLELTTDTAEGHHHHHH”, the “soluble on expression in E. coli” value is recorded as “soluble”.
Turning to “MGSDKIHHHHHHMTNTIMEQEARTAPQKIAGQLAANADLMQQLGEKLRAFDPRFVMIVGRGSSDHAGVFAKYLFEIEVGVPTFAAAPSVASVYGKTLKLEGGLVIVISQSGRSPDILAQARMAKNAGAFCVALVNDETAPIKDIVDVVVPLRAGEEKAVAATKSYLATLSAILQLASAWTQSESLAAAVSSLPQALQTAVVAEPQLTPESVENVKNLVVLGRGLGYAVSKEIALKLKEVCSIHAEAFSSAEFLHGPVTLVEKKLTIVDVCIGDESYASHIEQIENVSQRGADLVHLNQTSTDIHPRVAPLALLQRFYIDVAAVAIARGIDPDQPAGLKKVTQTL”, the “soluble on expression in E. coli” value is recorded as “not soluble”.
For “MLPSSIEDYALIGDCETAALVGRDGSIDWLCWPSFDSEACFAALLGNEDNGRWQIAPADEVVRCSRRYRGDSLILETTFETATGSITLIDFMPPRGSASDVVRLVRGDRGRVKVAMQLVIRFGYGVALEHHHHHH” the value was “not soluble”.
For “MKKIIAILLLVIGSIGIGKDLDQYESKRVFDKIIEVALTGDYEKYKNDKEMTNALEELVKASEYLDVHRIFSDGNKYIVLDVEEQGNRSILTVKAVYKIYRDISEEKYRQIMEREVLELMKYDMEEIDEKTYKKNVYNIITDIAGNDFEIKEEVIKMNMIKKEKWDMEDNSDLIQRLYPAIFYMMESLNKRYFKTSEEGNI”, the “soluble on expression in E. coli” value was “not soluble”.
Regarding “MPVAATNSETAMQQVLDNLGSLPSATGAAELDLIFLRGIMESPIVRSLAKAHERLEETKLEAVRDNNLELVQEILRDLAQLAEQSSTAAELAHILQEPHFQSLLETHDSVASKTYETPPPSPGLDPTFSNQPVPPDAVRMVGIRKTAGEHLGVTFRVEGGELVIARILHGGMVAQQGLLHVGDIIKEVNGQPVGSDPRALQELLRNASGSVILKILPSYQEPHLPRQVFVKCHFDYDPARDSLIPCKEAGLRFNAGDLLQIVNQDDANWWQACHVEGGSAGLIPSQLLEEKRKAFVKRDLELTPNSGTLCGSLSGKKKKRMMYLTTKNAEFDRHELLIYEEVARMPPFRRKTLVLIGAQGVGRRSLKNKLIMWDPDRYGTTVPYTSRRPKDSEREGQGYSFVSRGEMEADVRAGRYLEHGEYEGNLYGTRIDSIRGVVAAGKVCVLDVNPQAVKVLRTAEFVPYVVFIEAPDFETLRAMNRAALESGISTKQLTEADLRRTVEESSRIQRGYGHYFDLCLVNSNLERTFRELQTAMEKLRTEPQWVPVSWVY”, the “soluble on expression in E. coli” value is “soluble”.

These data come from the DeepSol protein solubility set.
